Reference: IntAct's records for PubMed 26886794

B1: Histone-lysine N-methyltransferase SETD1B (Homo sapiens), Q9UPS6-2 (parent)
chain: MENSHPPHHHHQQPPPQPGPSGERRNHHWRSYKLMIDPALKKGHHKLYRYDGQHFSLAMSSNRPVEIVEDPRVVGIWTKNKELELSVPKFKIDEFYVGPVPPKQVTFAKLNDNIRENFLRDMCKKYGEVEEVEILYNPKTKKHLGIAKVVFATVRGAKDAVQHLHSTSVMGNIIHVELDTKGETRMRFYELLVTGRYTPQTLPVGELDAVSPIVNETLQLSDALKRLKDGGLSAGCGSGSSSVTPNSGGTPFSQDTAYSSCRLDTPNSYGQGTPLTPRLGTPFSQDSSYSSRQPTPSYLFSQDPAVTFKARRHESKFTDAYNRRHEHHYVHNSPAVTAVAGATAAFRGSSDLPFGAVGGTGGSSGPPFKAQPQDSATFAHTPPPAQATPAPGFKSAFSPYQTPVAHFPPPPEEPTATAAFGARDSGEFRRAPAPPPLPPAEPLAKEKPGTPPGPPPPDTNSMELGGRPTFGWSPEPCDSPGTPTLESSPAGPEKPHDSLDSRIEMLLKEQRTKLLFLREPDSDTELQMEGSPISSSSSQLSPLAPFGTNSQPGFRGPTPPSSRPSSTGLEDISPTPLPDSDEDEELDLGLGPRPPPEPGPPDPAGLLSQTAEVALDLVGDRTPTSEKMDEGQQSSGEDMEISDDEMPSAPITSADCPKPMVVTPGAAAVAAPSVLAPTLPLPPPPGFPPLPPPPPPPPPQPGFPMPPPLPPPPPPPPPAHPAVTVPPPPLPAPPGVPPPPILPPLPPFPPGLFPVMQVDMSHVLGGQWGGMPMSFQMQTQVLSRLMTGQGACPYPPFMAAAAAAASAGLQFVNLPPYRGPFSLSNSGPGRGQHWPPLPKFDPSVPPPGYMPRQEDPHKATVDGVLLVVLKELKAIMKRDLNRKMVEVVAFRAFDEWWDKKERMAKASLTPVKSGEHKDEDRPKPKDRIASCLLESWGKGEGLGYEGLGLGIGLRGAIRLPSFKVKRKEPPDTTSSGDQKRLRPSTSVDEEDEESERERDRDMADTPCELAKRDPKGVGVRRRPARPLELDSGGEEDEKESLSEEQESTEEEEEAEEEEEEEDDDDDDSDDRDESENDDEDTALSEASEKDEGDSDEEETVSIVTSKAEATSSSESSESSEFESSSESSPSSSEDEEEVVAREEEEEEEEEEMVAEESMASAGPEDFEQDGEEAALAPGAPAVDSLGMEEEVDIETEAVAPEERPSMLDEPPLPVGVEEPADSREPPEEPGLSQEGAMLLSPEPPAKEVEARPPLSPERAPEHDLEVEPEPPMMLPLPLQPPLPPPRPPRPPSPPPEPETTDASHPSVPPEPLAEDHPPHTPGLCGSLAKSQSTETVPATPGGEPPLSGGSSGLSLSSPQVPGSPFSYPAPSPSLSSGGLPRTPGRDFSFTPTFSEPSGPLLLPVCPLPTGRRDERSGPLASPVLLETGLPLPLPLPLPLPLALPAVLRAQARAPTPLPPLLPAPLASCPPPMKRKPGRPRRSPPSMLSLDGPLVRPPAGAALGRELLLLPGQPQTPVFPSTHDPRTVTLDFRNAGIPAPPPPLPPQPPPPPPPPPVEPTKLPFKELDNQWPSEAIPPGPRGRDEVTEEYMELAKSRGPWRRPPKKRHEDLVPPAGSPELSPPQPLFRPRSEFEEMTILYDIWNGGIDEEDIRFLCVTYERLLQQDNGMDWLNDTLWVYHPSTSLSSAKKKKRDDGIREHVTGCARSEGFYTIDKKDKLRYLNSSRASTDEPPADTQGMSIPAQPHASTRAGSERRSEQRRLLSSFTGSCDSDLLKFNQLKFRKKKLKFCKSHIHDWGLFAMEPIAADEMVIEYVGQNIRQVIADMREKRYEDEGIGSSYMFRVDHDTIIDATKCGNFARFINHSCNPNCYAKVITVESQKKIVIYSKQHINVNEEITYDYKFPIEDVKIPCLCGSENCRGTLN

Variants of: B1
Conditions: with ASH2L

effect of a mutation on the interaction	Variant
disrupting interaction strength	R1819A
